Source: the supplement of paper PMC9170038

Test system: MS2 coat protein
Experiment: apparent KD of MS2 coat protein; designed switch direction (-1 OFF switch, 1 ON switch): -1; higher = weaker reporter binding
Procedure, shortened: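 Apparent KD, taken as the median over clusters for each design, was obtained by curve-fitting normalised cluster fluorescence. Designed RNA switches had been transcribed on Illumina chips by stalled E. coli RNA polymerase and titrated with SNAP-549-labelled MS2 coat protein, doubling from 0.7 or 1.5 nM to 3 µM.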

[1] = input ligand: microRNA oligo, concentration not stated
[2] = Eterna round: R95, input ligand: FMN 200 uM
[3] = Eterna round: R95, input ligand: microRNA oligo, concentration not stated
[4] = Eterna round: R95, input ligand: none

## ACAAUGUCAGGAUAUGAACAGCGCGGUCACAAGGAUUGCUUUCAGAAGGGACAUGAGGAUCACCCAUGUCGAUA [Eternabot (L1) Solution 91] (Eterna round: R97, puzzle: Exclusion 4)
Input ligand: FMN 200 uM
  apparent KD of MS2 coat protein: 23 nM
Input ligand: none
  apparent KD of MS2 coat protein: 20 nM

## UGAUCAGACCGAGGAUAUAUAUGGAGGACGCACGUGAGUGCGUCCACUACAUGAGGAUCACCCAUGUAGAAGGCGGUCUGAUCU [JL ENG2 1.98] (Eterna round: R96, puzzle: Exclusion NG 2)
Input ligand: FMN 200 uM
  apparent KD of MS2 coat protein: 26.2 nM
[1]
  apparent KD of MS2 coat protein: 9.6 nM
Input ligand: none
  apparent KD of MS2 coat protein: 13.1 nM

## AGUCAGGCGGUAGGAUAUCCAAACCGAGUGACCCUUACAUAACAUGAGGAUCACCCAUGUCGGUGGGAGAAGGGCCGUAAGGCA [Mat - Exclusion NG 2 - Mod of JL - D67] (Eterna round: R96, puzzle: Exclusion NG 2)
Input ligand: FMN 200 uM
  apparent KD of MS2 coat protein: 517 nM
[1]
  apparent KD of MS2 coat protein: 349 nM
Input ligand: none
  apparent KD of MS2 coat protein: 113 nM

## ACAAGCUUUUUGUUCGUCUUAUACACUCCUAAUAAGAAAACAUGAGGAUCACCCAUGUAAGAAAUAAGAACUCAUGU [Sesor Array 1 - Jieux - Sensor v3, turn-off variant 2] (puzzle: Sensor v3, turn-off variant 2)
[2]
  apparent KD of MS2 coat protein: 225 nM
[3]
  apparent KD of MS2 coat protein: 303 nM
[4]
  apparent KD of MS2 coat protein: 213 nM

## GAUUAUGCGAGCUUUAGGGACAUGAGGAUCACCCAUGUUCGUCUUAUUAGUCUAAGUGCACUGACAUACCUAAAUCU [JMF 83] (puzzle: Sensor v3, turn-off variant 1)
[2]
  apparent KD of MS2 coat protein: 15.8 nM
[3]
  apparent KD of MS2 coat protein: 23.2 nM
[4]
  apparent KD of MS2 coat protein: 16.6 nM

## UACGUGUCAGGAUAUUUGAAGCGAAUCACGAGCAUUCGCGUGGAGAAGGGACAUGAGGAUCACCCAUGUAGGCG [Eternabot (L1) Solution 32] (Eterna round: R97, puzzle: Exclusion 4)
Input ligand: FMN 200 uM
  apparent KD of MS2 coat protein: 370 nM
Input ligand: none
  apparent KD of MS2 coat protein: 242 nM

## AUAAUGUGAGGAUAUCAGUCGACUAGCCUCGGCUAGUCGACUGAGAAGGUACAUGAGGAUCACCCAUGUAGAUC [E4/20-A2] (Eterna round: R97, puzzle: Exclusion 4)
Input ligand: FMN 200 uM
  apparent KD of MS2 coat protein: 84.3 nM
Input ligand: none
  apparent KD of MS2 coat protein: 26.4 nM

## AGUAACCGUCACGAAAGUGAUGGUUACACAAGCAAAUGUACAUGAGGAUCACCCAUGUCCUCAUUUGUUCGUCUUAU [Sensor 3 - 47] (puzzle: Sensor v3, turn-off variant 2)
[2]
  apparent KD of MS2 coat protein: 83.5 nM
[3]
  apparent KD of MS2 coat protein: 390 nM
[4]
  apparent KD of MS2 coat protein: 87.5 nM

## AAGCCCUGAGGAUAUCCCAACUCGCACAUGAGGAUCACCCAUGUCCUCCUCCGGGCUUCGGGAGAAGGCAGGUCUC [Megrez-7.8] (Eterna round: R97, puzzle: Exclusion 5)
Input ligand: FMN 200 uM
  apparent KD of MS2 coat protein: 186 nM
Input ligand: none
  apparent KD of MS2 coat protein: 25.7 nM

## CAAAAGCGAGGAUAUACAUGAGGAUCACCCAUGUGGCAGCCAUGUAGGAGUGACGUCGGUAGAAGGCGCACCCU [Soaran] (puzzle: Exclusion 3)
[3]
  apparent KD of MS2 coat protein: 76.2 nM

## CACCCUGAUGACAAAUUACAUGAGGAUCACCCAUGUGCCUCGCAGGAUAUCCCAGCACGUCGCAAGGAGAAGGGCGACGCGCCA [Ralerira] (Eterna round: R96, puzzle: Exclusion NG 3)
Input ligand: FMN 200 uM
  apparent KD of MS2 coat protein: 31.5 nM
[1]
  apparent KD of MS2 coat protein: 23.9 nM
Input ligand: none
  apparent KD of MS2 coat protein: 41.3 nM

## AAUUAUUAUUGAGGAUAUCGUAGUGAAACACUACGAGAAGGCGGUAUAAACAUGAGGAUCACCCAUGUGAGCCUGAUGCUUAUG [Ex NG1 #44] (Eterna round: R96, puzzle: Exclusion NG 1)
[1]
  apparent KD of MS2 coat protein: 20.6 nM

## CUCGUGCAGCAAAGCUGUACGAGUACAUGAGGAUCACCCAUGUAGGAUAUGGUACGCAAAGCGUGCCAGAAGGACGUGCGUUAG [Mat - Exclusion NG 3 - Mod of JL - D94] (Eterna round: R96, puzzle: Exclusion NG 3)
Input ligand: FMN 200 uM
  apparent KD of MS2 coat protein: 92.5 nM
[1]
  apparent KD of MS2 coat protein: 19.5 nM
Input ligand: none
  apparent KD of MS2 coat protein: 49.7 nM

## GGUCAGAUGGUAGGAUAUUCAUAUCGAGUGACCCUUUCAUAACAUGAGGAUCACCCAUGUCGGUGGGAGAAGGGCCGUACGGCG [salish99_ExNG02_R04_014] (Eterna round: R96, puzzle: Exclusion NG 2)
Input ligand: FMN 200 uM
  apparent KD of MS2 coat protein: 26.9 nM
[1]
  apparent KD of MS2 coat protein: 29.3 nM
Input ligand: none
  apparent KD of MS2 coat protein: 50.7 nM

## UUUUAGAGAGGAUAUAUUUAGUGAAACAUGAGGAUCACCCAUGUAAUUAAAUGGAUGUAAAUAGAAGGCUCAUUUA [Mat - Exclusion 5 - JL mod - D6] (puzzle: Exclusion 5)
[2]
  apparent KD of MS2 coat protein: 22.9 nM
[3]
  apparent KD of MS2 coat protein: 23.7 nM
[4]
  apparent KD of MS2 coat protein: 26.4 nM

## GAAGAGACAGGAUAUACAUGAGGAUCACCCAUGUGAGGAGGAAGAGAGAGGAGAAGGAGUAGAAGGGUCAGAGG [JR_Exclu3_Sub028] (puzzle: Exclusion 3)
[2]
  apparent KD of MS2 coat protein: 32.1 nM
[3]
  apparent KD of MS2 coat protein: 41.2 nM
[4]
  apparent KD of MS2 coat protein: 46.5 nM

## AGUGUGUGGCAGGAUAUGCAAUUAAUAGGUGAAGCAGAAGGGUCUACAUGAGGAUCACCCAUGUGUGCGGUUGA [Ex6 #22] (Eterna round: R97, puzzle: Exclusion 6)
Input ligand: FMN 200 uM
  apparent KD of MS2 coat protein: 154 nM
Input ligand: none
  apparent KD of MS2 coat protein: 139 nM

## CGAUAAAGGUGAGGAUAUGAGAAUAGAAAGAAAUCAGAAGGCACACAUGAGGAUCACCCAUGUGAGUUCUCGAGAUUACAUGGU [Prohibition 45 - Jieux - Exclusion NG 1] (Eterna round: R96, puzzle: Exclusion NG 1)
[1]
  apparent KD of MS2 coat protein: 10.8 nM

## UACGAGUUAGGAUAUGCUUUGGGCUCGCUUUCCUUCGAUAAACUUGAGGAUCACCCAAGUAGAAGGAACUUGUA [Mod 34 - Jieux - Exclusion 2] (Eterna round: R97, puzzle: Exclusion 2)
Input ligand: FMN 200 uM
  apparent KD of MS2 coat protein: 49.2 nM
Input ligand: none
  apparent KD of MS2 coat protein: 29.6 nM

## CUCAAACAUGAGGAUCACCCAUGUCAGGAUAUGAUACUAUGUACUUCGGUACAUAGUAUCAGAAGGGAUAUGAA [Ex1-3: 66] (puzzle: Exclusion 1)
[3]
  apparent KD of MS2 coat protein: 69.3 nM

## ACUCGACAUGAGGAUCACCCAUGUGAGGAUAUGGCCUGUAUGGCGUGAGCUGAAUCAAUCAGAAGGCGCGUGGG [salish99_ex1_r4_053] (Eterna round: R97, puzzle: Exclusion 1)
Input ligand: FMN 200 uM
  apparent KD of MS2 coat protein: 105 nM
Input ligand: none
  apparent KD of MS2 coat protein: 44.8 nM

## AAUAAGGGAGGAUAUACAUGAGGAUCACCCAUGUUUGUAAUUUAAUUCGGGAGUAUUAGUAGAAGGCCCAAUAA [lam1] (Eterna round: R97, puzzle: Exclusion 3)
Input ligand: FMN 200 uM
  apparent KD of MS2 coat protein: 278 nM
Input ligand: none
  apparent KD of MS2 coat protein: 59.5 nM

## UCACGGGACUAAGGAUAUACAUGAUCCAUUUUUGUAGAAGGUAGAAUGUUAGAUCAUAAACUAAACAUGAGGAUCACCCAUGUU [JR_ExcNG1_Sub089] (Eterna round: R96, puzzle: Exclusion NG 1)
[1]
  apparent KD of MS2 coat protein: 20.2 nM

## UAAUAAUAGCAAGGAUAUGGUUAUUAUAAUAUACCAGAAGGUGCACAUGAGGAUCACCCAUGUUUUAUAAUUUGUAAUUUAAAU [First something] (Eterna round: R96, puzzle: Exclusion NG 1)
[1]
  apparent KD of MS2 coat protein: 22.9 nM

## UCUUGUUGUCCUUGAUAAUACAUGAGGAUCACCCAUGUUAUUUUGAUUAUGAUGUGUAAGUUUGUUGCUCGUUUUAU [JR_STOV1_Sub069] (Eterna round: R97, puzzle: Sensor, turn-off variant 1)
Input ligand: FMN 200 uM
  apparent KD of MS2 coat protein: 27.7 nM
Input ligand: none
  apparent KD of MS2 coat protein: 30.9 nM

## CAUGAUUUUCGGAAAAUGUACAUGAGGAUCACCCAUGUGACGAGUUACAUGAAAAACAAGCUUUUUGCUCGUCUUAU [Sensor v3 - Turn-off variant 1 - 11] (puzzle: Sensor v3, turn-off variant 1)
[2]
  apparent KD of MS2 coat protein: 102 nM
[3]
  apparent KD of MS2 coat protein: 24.8 nM
[4]
  apparent KD of MS2 coat protein: 188 nM

## UGUAUACGAGGAUAUACAUGAGGAUCACCCAUGUGGACGUUGGAGAACGGCCCUCGUAGUAGAAGGCGUAUGAG [Eternabot (L2) Solution 53] (Eterna round: R97, puzzle: Exclusion 3)
Input ligand: FMN 200 uM
  apparent KD of MS2 coat protein: 51.3 nM
Input ligand: none
  apparent KD of MS2 coat protein: 15.4 nM

## GUCAGCUCGUGAGGAUAUACAUGAGGAUCACCCAUGUGAUCAAUAGCAGCUUCGGCUGCAUUAAUGUAGAAGGUACGAGCUGAC [ENG2/5-C1] (Eterna round: R96, puzzle: Exclusion NG 2)
Input ligand: FMN 200 uM
  apparent KD of MS2 coat protein: 65.2 nM
[1]
  apparent KD of MS2 coat protein: 111 nM
Input ligand: none
  apparent KD of MS2 coat protein: 700 nM

## ACCAUGUAAGGAUAUGGUGGCUGUGAACAGGCCUGAUAAAUCUAGAAGGUACAUGAGGAUCACCCAUGUGAUGA [Eternabot (L2) Solution 84] (Eterna round: R97, puzzle: Exclusion 4)
Input ligand: FMN 200 uM
  apparent KD of MS2 coat protein: 54 nM
Input ligand: none
  apparent KD of MS2 coat protein: 32.7 nM

## GGAACGCGAGGAUAUACAAGGCCGGAAACGGAAAUAGCCUCACAUGAGGAUCACCCAUGUAGAAGGCGCGGAGA [AK-MS2ROC-r4-exclusion2-26] (Eterna round: R97, puzzle: Exclusion 2)
Input ligand: FMN 200 uM
  apparent KD of MS2 coat protein: 175 nM
Input ligand: none
  apparent KD of MS2 coat protein: 22.1 nM

## GAAAAGGUAGGAUAUCGAGACCAUAACAUGAGGAUCACCCAUGUGAUACCUACAGUGGUCCGAGAAGGACCAUAUA [Iserdianqu] (puzzle: Exclusion 5)
[2]
  apparent KD of MS2 coat protein: 62.1 nM
[3]
  apparent KD of MS2 coat protein: 20.4 nM
[4]
  apparent KD of MS2 coat protein: 19.3 nM

## GGUGUUGAAGGAUAUACAUGAGGAUCACCCAUGUACCGCUCGGACAAGAUAUCAUUCAGUAGAAGGUCGGACCG [Eternabot (L2) Solution 11] (Eterna round: R97, puzzle: Exclusion 3)
Input ligand: FMN 200 uM
  apparent KD of MS2 coat protein: 66.5 nM
Input ligand: none
  apparent KD of MS2 coat protein: 150 nM

## CAGCUGAAAGUCAGGAUAUCUAGAGCGAUAGCUCUAGAGAAGGGACAUGAGGAUCACCCAUGUGGUCACAGCUG [BmEx4/5-A4] (Eterna round: R97, puzzle: Brourd's mod of Exclusion 4)
Input ligand: FMN 200 uM
  apparent KD of MS2 coat protein: 169 nM
Input ligand: none
  apparent KD of MS2 coat protein: 648 nM

## GGUCAUCAAGUCAGGAUAUCGUCAAAUCAAUCAGGCGAGAAGGGACAUGAGGAUCACCCAUGUCGACUCAUCAC [Ex4 #4] (Eterna round: R97, puzzle: Brourd's mod of Exclusion 4)
Input ligand: FMN 200 uM
  apparent KD of MS2 coat protein: 117 nM
Input ligand: none
  apparent KD of MS2 coat protein: 31.2 nM
